# In US20250326865A1, “C-MET PROTEIN-BINDING PEPTIDE COMPLEX” (PeptiDream Inc., priority 2021, published 2025):
# Starred links: 1 amine or outer side, 2 acyl side, 3 side chain; linkers in the order of their positions; H or OH if unused. Positions of bridges follow the written chain, without caps; N, C: chain ends. Non-standard residues stand in square brackets, D forms with d. Residues, ends and D or L forms follow the SMILES beside them. Primed or numbered codes have the meaning given here. Chains are numbered I, II in the order given. No end group written: not given here. CO(CH2CH2O)9CH2CH2CO = O=C(CCOCCOCCOCCOCCOCCOCCOCCOCCOCCC(=O)[*:2])[*:1]; PEG12 = NCCOCCOCCOCCOCCOCCOCCOCCOCCOCCOCCOCCOCCC(=O)O; NMeF = CN[C@@H](Cc1ccccc1)C(=O)O; Ahp(2) = CCCCC[C@H](N)C(=O)O; NMeC = CN[C@@H](CS)C(=O)O; Ahp′ = not defined here; Abu = CC[C@H](N)C(=O)O
# Biological target: T1, c-Met (Homo sapiens, UniProt P08581)
# T1 construct: endogenous in cells; host or cells: A431 (human)
# T1 sequence (P08581 25-1390): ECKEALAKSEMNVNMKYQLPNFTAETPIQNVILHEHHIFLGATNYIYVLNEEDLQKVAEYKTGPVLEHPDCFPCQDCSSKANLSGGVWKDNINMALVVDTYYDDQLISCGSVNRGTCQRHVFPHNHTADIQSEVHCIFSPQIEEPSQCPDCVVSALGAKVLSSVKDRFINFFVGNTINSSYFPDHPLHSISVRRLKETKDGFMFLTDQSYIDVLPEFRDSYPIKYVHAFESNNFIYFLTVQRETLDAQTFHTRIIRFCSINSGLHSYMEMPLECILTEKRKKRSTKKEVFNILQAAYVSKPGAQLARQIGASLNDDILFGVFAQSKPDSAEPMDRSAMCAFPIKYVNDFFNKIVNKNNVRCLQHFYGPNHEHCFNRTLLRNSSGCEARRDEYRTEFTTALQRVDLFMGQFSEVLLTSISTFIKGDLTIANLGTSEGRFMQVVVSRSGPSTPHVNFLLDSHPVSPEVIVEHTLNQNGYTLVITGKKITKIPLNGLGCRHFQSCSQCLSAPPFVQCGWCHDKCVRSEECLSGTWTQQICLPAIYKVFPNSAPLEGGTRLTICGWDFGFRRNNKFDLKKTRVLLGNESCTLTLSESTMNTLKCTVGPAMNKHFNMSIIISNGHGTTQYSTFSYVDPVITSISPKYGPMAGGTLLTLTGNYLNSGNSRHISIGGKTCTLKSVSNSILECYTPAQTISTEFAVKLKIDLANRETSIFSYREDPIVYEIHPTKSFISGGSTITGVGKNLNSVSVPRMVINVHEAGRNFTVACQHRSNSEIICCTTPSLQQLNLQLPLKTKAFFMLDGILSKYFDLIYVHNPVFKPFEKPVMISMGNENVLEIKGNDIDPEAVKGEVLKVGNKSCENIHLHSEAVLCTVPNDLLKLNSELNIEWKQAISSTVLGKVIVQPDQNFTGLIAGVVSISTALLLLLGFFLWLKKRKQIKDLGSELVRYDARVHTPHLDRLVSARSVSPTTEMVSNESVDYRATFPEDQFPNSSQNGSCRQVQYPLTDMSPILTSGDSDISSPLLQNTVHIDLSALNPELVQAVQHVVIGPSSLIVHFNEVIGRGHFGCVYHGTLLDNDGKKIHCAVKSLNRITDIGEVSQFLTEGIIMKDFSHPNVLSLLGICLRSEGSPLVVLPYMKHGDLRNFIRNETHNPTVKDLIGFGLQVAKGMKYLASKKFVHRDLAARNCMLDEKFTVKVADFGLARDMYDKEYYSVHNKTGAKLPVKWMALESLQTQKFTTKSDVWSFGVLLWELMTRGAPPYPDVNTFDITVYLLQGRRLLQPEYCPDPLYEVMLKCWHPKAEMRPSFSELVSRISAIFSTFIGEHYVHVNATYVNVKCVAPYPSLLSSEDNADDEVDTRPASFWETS
# Experiment: Phospho-c-Met AlphaLISA assay (c-Met agonist activity) in A431 cells
# Format: cell-based
# Settings: 15 minutes of stimulation; for C-Met Agonist Activity (2 or 1): c-Met phosphorylation (Tyr1234/1235) in A431 cells, maximum signal induced by HGF = 100%; for EC50: concentration of peptide showing 50% activity of the signal induced by HGF, A431 cells, read-out: C-Met Agonist Activity (C50; nM)
# Protocol: To evaluate the activation potency (c-Met agonist activity) of c-Met of the peptide complex of the present invention, the phosphorylation of c-Met was verified. Human A431 cells were cultured in DMEM high glucose, GlutaMAX (registered trademark) Supplement, pyruvate (Thermo Fisher Scientific), containing 10% FBS (Gibco). After cells were detached using Accutase (Innovative cell technologies), they were seeded into a 96-well plate at 10000 cells per well and cultured overnight. The next day, for starvation, the culture medium was changed to DMEM high glucose, GlutaMAX (registered trademark) Supplement, pyruvate (Thermo Fisher Scientific), containing 0.1% BSA (Sigma-Aldrich), and the cells were cultured overnight. Then, the peptide complex synthesized in Example 3 or Recombinant Human HGF Protein (R&D systems) as a control was added, and after 15 minutes of stimulation, cells were lysed in a Lysis Buffer provided in the AlphaLISA (registered trademark) SureFire (registered trademark) Ultra™ Phospho-c-Met (Tyr1234/1235) kit (PerkinElmer). The assay was performed according to the kit protocol, and a SpectraMax (registered trademark) Paradigm (registered trademark) multimode microplate reader (Molecular Devices, LLC.) was used for signal detection. […] In the same manner, the C50 value was calculated by GraphPad Prism as the concentration of peptide showing 50% activity of the signal induced by HGF. […] Further, for a complex (GFs_c-Met-00014336-PEG13 dimer; complex no. 49 in Table 4) of a peptide (SEQ ID NO: 34) and a linker (SEQ ID NO: 37), a graph of c-Met agonist activity is shown in FIG. 1.
Molecule,C-Met Agonist Activity (2 or 1),EC50 [nM]
5 ([NMeF]WYVS[NMeF]DDD[Ahp′]PRWS[NMeC]; not fully specified; reading uncertain) [Peptide 5],2 (those showing more than 50% activation were described as 2),–
6 ([NMeF]VDVS[NMeF]DDD[Ahp′]PRWS[NMeC]; not fully specified; reading uncertain) [Peptide 6],2 (those showing more than 50% activation were described as 2),–
7 ({CH2CO}-[NMeF]VYVS[NMeF]DVD[Ahp′]PRWS[NMeC]; thioether N-15 (inferred); not fully specified; reading uncertain; also: conjugated moiety via linker) [Peptide 7],2 (those showing more than 50% activation were described as 2),–
"CCCCC[C@@H]1NC(=O)[C@H](CC(=O)O)NC(=O)[C@@H]2CCCN2C(=O)[C@H](CC(=O)O)NC(=O)[C@H](Cc2ccccc2)N(C)C(=O)[C@H](CO)NC(=O)[C@H](C(C)C)NC(=O)[C@H](C)NC(=O)[C@H](CCC(=O)O)NC(=O)[C@H](Cc2ccccc2)N(C)C(=O)CSC[C@@H](C(=O)NCC(=O)N[C@@H](CCCCNC(=O)CCOCCOCCOCCOCCOCCOCCOCCOCCOCCC(=O)NCCCC[C@H](NC(=O)CNC(=O)[C@@H]2CSCC(=O)N(C)[C@@H](Cc3ccccc3)C(=O)N[C@@H](CCC(=O)O)C(=O)N[C@@H](C)C(=O)N[C@@H](C(C)C)C(=O)N[C@@H](CO)C(=O)N(C)[C@@H](Cc3ccccc3)C(=O)N[C@@H](CC(=O)O)C(=O)N3CCC[C@H]3C(=O)N[C@@H](CC(=O)O)C(=O)N[C@@H](CCCCC)C(=O)N3CCC[C@H]3C(=O)N[C@@H](CCCNC(=N)N)C(=O)N[C@@H](Cc3c[nH]c4ccccc34)C(=O)N[C@@H](CO)C(=O)N2C)C(N)=O)C(N)=O)N(C)C(=O)[C@H](CO)NC(=O)[C@H](Cc2c[nH]c3ccccc23)NC(=O)[C@H](CCCNC(=N)N)NC(=O)[C@@H]2CCCN2C1=O [Peptide 30] (I: {CH2CO}-[NMeF]EAVS[NMeF]DPD[Ahp(2)]PRWS[NMeC]GK-NH2 / II: {CH2CO}-[NMeF]EAVS[NMeF]DPD[Ahp(2)]PRWS[NMeC]GK-NH2; linker I:17-II:17 via CO(CH2CH2O)9CH2CH2CO (inferred); thioether I:N-I:15, II:N-II:15 (inferred))",–,0.81
"CCCCC[C@@H]1NC(=O)[C@H](CC(=O)O)NC(=O)[C@@H]2CCCN2C(=O)[C@H](CC(=O)O)NC(=O)[C@H](Cc2ccccc2)N(C)C(=O)[C@H](CO)NC(=O)[C@H](C(C)C)NC(=O)[C@H](C)NC(=O)[C@H]([C@@H](C)O)NC(=O)[C@H](Cc2ccccc2)N(C)C(=O)CSC[C@@H](C(=O)NCC(=O)N[C@@H](CCCCNC(=O)CCOCCOCCOCCOCCOCCOCCOCCOCCOCCC(=O)NCCCC[C@H](NC(=O)CNC(=O)[C@@H]2CSCC(=O)N(C)[C@@H](Cc3ccccc3)C(=O)N[C@@H]([C@@H](C)O)C(=O)N[C@@H](C)C(=O)N[C@@H](C(C)C)C(=O)N[C@@H](CO)C(=O)N(C)[C@@H](Cc3ccccc3)C(=O)N[C@@H](CC(=O)O)C(=O)N3CCC[C@H]3C(=O)N[C@@H](CC(=O)O)C(=O)N[C@@H](CCCCC)C(=O)N3CCC[C@H]3C(=O)N[C@@H](CCCNC(=N)N)C(=O)N[C@@H](Cc3c[nH]c4ccccc34)C(=O)N[C@@H](C)C(=O)N2C)C(N)=O)C(N)=O)N(C)C(=O)[C@H](C)NC(=O)[C@H](Cc2c[nH]c3ccccc23)NC(=O)[C@H](CCCNC(=N)N)NC(=O)[C@@H]2CCCN2C1=O [Peptide 46] (I: {CH2CO}-[NMeF]TAVS[NMeF]DPD[Ahp(2)]PRWA[NMeC]GK-NH2 / II: {CH2CO}-[NMeF]TAVS[NMeF]DPD[Ahp(2)]PRWA[NMeC]GK-NH2; linker I:17-II:17 via CO(CH2CH2O)9CH2CH2CO (inferred); thioether I:N-I:15, II:N-II:15 (inferred))",–,0.67
11 ({CH2CO}-[NMeF]VYVS[NMeF]DDD[Ahp′]PRW[Abu][NMeC]; thioether N-15 (inferred); not fully specified; reading uncertain; also: conjugated moiety via linker) [Peptide 11],2 (those showing more than 50% activation were described as 2),–
"CCCCC[C@@H]1NC(=O)[C@H](CC(=O)O)NC(=O)[C@H](CO)NC(=O)[C@H](CC(=O)O)NC(=O)[C@H](Cc2ccccc2)N(C)C(=O)[C@H](CO)NC(=O)[C@H](C(C)C)NC(=O)[C@H](C)NC(=O)[C@H]([C@@H](C)O)NC(=O)[C@H](Cc2ccccc2)N(C)C(=O)CSC[C@@H](C(=O)NCC(=O)N[C@@H](CCCCNC(=O)CCOCCOCCOCCOCCOCCOCCOCCOCCOCCC(=O)NCCCC[C@H](NC(=O)CNC(=O)[C@@H]2CSCC(=O)N(C)[C@@H](Cc3ccccc3)C(=O)N[C@@H]([C@@H](C)O)C(=O)N[C@@H](C)C(=O)N[C@@H](C(C)C)C(=O)N[C@@H](CO)C(=O)N(C)[C@@H](Cc3ccccc3)C(=O)N[C@@H](CC(=O)O)C(=O)N[C@@H](CO)C(=O)N[C@@H](CC(=O)O)C(=O)N[C@@H](CCCCC)C(=O)N3CCC[C@H]3C(=O)N[C@@H](CCCNC(=N)N)C(=O)N[C@@H](Cc3c[nH]c4ccccc34)C(=O)N[C@@H](C)C(=O)N2C)C(N)=O)C(N)=O)N(C)C(=O)[C@H](C)NC(=O)[C@H](Cc2c[nH]c3ccccc23)NC(=O)[C@H](CCCNC(=N)N)NC(=O)[C@@H]2CCCN2C1=O [Peptide 44] (I: {CH2CO}-[NMeF]TAVS[NMeF]DSD[Ahp(2)]PRWA[NMeC]GK-NH2 / II: {CH2CO}-[NMeF]TAVS[NMeF]DSD[Ahp(2)]PRWA[NMeC]GK-NH2; linker I:17-II:17 via CO(CH2CH2O)9CH2CH2CO (inferred); thioether I:N-I:15, II:N-II:15 (inferred))",–,0.33
2 ({CH2CO}-[MeA]VYVS[NMeF]DDD[Ahp′]PRWS[NMeC]; thioether N-15 (inferred); not fully specified; reading uncertain; also: conjugated moiety via linker) [Peptide 2],1 (those showing less than 50% activation as 1),–
1 ({CH2CO}-[NMeF]VYVS[NMeF]DDD[Ahp′]PRWS[NMeC]; thioether N-15 (inferred); not fully specified; reading uncertain; also: conjugated moiety via linker) [Peptide 1],2 (those showing more than 50% activation were described as 2),–
"CCCCC[C@@H]1NC(=O)[C@H](CC(=O)O)NC(=O)[C@H](CC(=O)O)NC(=O)[C@H](CC(=O)O)NC(=O)[C@H](Cc2ccccc2)N(C)C(=O)[C@H](CO)NC(=O)[C@H](C(C)C)NC(=O)[C@H](Cc2ccc(O)cc2)NC(=O)[C@H](C(C)C)NC(=O)[C@H](Cc2ccccc2)N(C)C(=O)CSC[C@@H](C(=O)NCCOCCOCCOCCOCCOCCOCCOCCOCCOCCOCCOCCOCCC(=O)NCCCC[C@H](NC(=O)CCOCCOCCOCCOCCOCCOCCOCCOCCOCCOCCOCCOCCNC(=O)[C@@H]2CSCC(=O)N(C)[C@@H](Cc3ccccc3)C(=O)N[C@@H](C(C)C)C(=O)N[C@@H](Cc3ccc(O)cc3)C(=O)N[C@@H](C(C)C)C(=O)N[C@@H](CO)C(=O)N(C)[C@@H](Cc3ccccc3)C(=O)N[C@@H](CC(=O)O)C(=O)N[C@@H](CC(=O)O)C(=O)N[C@@H](CC(=O)O)C(=O)N[C@@H](CCCCC)C(=O)N3CCC[C@H]3C(=O)N[C@@H](CCCNC(=N)N)C(=O)N[C@@H](Cc3c[nH]c4ccccc34)C(=O)N[C@@H](C)C(=O)N2C)C(N)=O)N(C)C(=O)[C@H](C)NC(=O)[C@H](Cc2c[nH]c3ccccc23)NC(=O)[C@H](CCCNC(=N)N)NC(=O)[C@@H]2CCCN2C1=O [Peptide 22] (I: {CH2CO}-[NMeF]VYVS[NMeF]DDD[Ahp(2)]PRWA[NMeC][PEG12]K-NH2 / II: {CH2CO}-[NMeF]VYVS[NMeF]DDD[Ahp(2)]PRWA[NMeC][PEG12]; amide I:17-II:C; thioether I:N-I:15, II:N-II:15)",–,2.37
16 ({CH2CO}-[NMeF]VAVS[NMeF]DDD[Ahp′]PRWS[NMeC]; thioether N-15 (inferred); not fully specified; reading uncertain; also: conjugated moiety via linker) [Peptide 16],1 (those showing less than 50% activation as 1),–
